# Results published in patent publication US7375083B2, “Pharmaceutical compositions for prevention of overdose or abuse” (Shire LLC, priority 2003, dated 2008).
# Where a SMILES comes first, the peptide text is derived from it. The star is where a group is joined. X1 = COc1ccc2c3c1O[C@H]1C(O*)=CC[C@H]4[C@@H](C2)N(C)CC[C@]314
# Experiments:
# Male Sprague-Dawley rats = assay: Locomotor activity after intranasal administration with and without CMC; assay type: in vivo; settings: 1.0 mg/kg
# [1] = biological target: T1, human recombinant norepinephrine transport binding sites (Homo sapiens, UniProt P23975); assay: Radioligand binding, norepinephrine transporter; settings: 10^−9 to 10^−5 M
# T1 construct: purchased Novascreen, Hanover, Md
# T1 sequence (P23975 whole entry): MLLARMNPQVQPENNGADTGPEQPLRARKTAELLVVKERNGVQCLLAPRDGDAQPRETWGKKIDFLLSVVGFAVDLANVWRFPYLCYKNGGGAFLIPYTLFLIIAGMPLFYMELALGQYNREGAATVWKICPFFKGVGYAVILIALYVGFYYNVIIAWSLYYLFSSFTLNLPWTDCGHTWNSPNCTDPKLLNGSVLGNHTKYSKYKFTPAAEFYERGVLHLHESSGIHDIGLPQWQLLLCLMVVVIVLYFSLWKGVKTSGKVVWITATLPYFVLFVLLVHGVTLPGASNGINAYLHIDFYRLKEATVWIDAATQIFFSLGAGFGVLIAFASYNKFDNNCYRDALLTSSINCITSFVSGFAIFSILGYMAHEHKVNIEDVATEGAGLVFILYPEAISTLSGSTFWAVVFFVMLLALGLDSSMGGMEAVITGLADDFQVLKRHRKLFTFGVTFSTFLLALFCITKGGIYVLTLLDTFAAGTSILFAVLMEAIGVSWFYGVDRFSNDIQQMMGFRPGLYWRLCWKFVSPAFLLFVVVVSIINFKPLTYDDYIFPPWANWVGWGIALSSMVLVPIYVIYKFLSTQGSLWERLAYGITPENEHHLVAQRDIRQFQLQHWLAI
# [2] = Oral bioavailability of hydrocodone conjugates in rats, LC/MS/MS; settings: for AUC (ng/ml h) 0-8 h / Cmax: hydrocodone plus hydromorphone; for Percent HC (AUC) / Percent HC (Cmax): relative to hydrocodone bitartrate; for Percent HC + HM (AUC) / Percent HC + HM (Cmax): relative to parameter following hydrocodone bitartrate
# [3] = oral, 1 mg/kg hydrocodone base content
# [4] = oral, 1 mg/kg hydrocodone base content, 0 h
# [5] = oral, 1 mg/kg hydrocodone base content, 0.1 h
# [6] = oral, 1 mg/kg hydrocodone base content, 1.0 h
# [7] = oral, 1 mg/kg hydrocodone base content, 2.0 h
# [8] = oral, 1 mg/kg hydrocodone base content, 4.0 h
# [9] = oral, 2 mg/kg hydrocodone base content
# [10] = oral, 2 mg/kg hydrocodone base content, 0 h
# [11] = oral, 2 mg/kg hydrocodone base content, 0.1 h
# [12] = oral, 2 mg/kg hydrocodone base content, 0.5 h
# [13] = oral, 2 mg/kg hydrocodone base content, 1.0 h
# [14] = oral, 2 mg/kg hydrocodone base content, 2.0 h
# [15] = oral, 2 mg/kg hydrocodone base content, 4.0 h
# [16] = oral, 5 mg/kg hydrocodone base content
# [17] = oral, 5 mg/kg hydrocodone base content, 0 h
# [18] = oral, 5 mg/kg hydrocodone base content, 0.1 h
# [19] = oral, 5 mg/kg hydrocodone base content, 0.5 h
# [20] = oral, 5 mg/kg hydrocodone base content, 1.0 h
# [21] = oral, 5 mg/kg hydrocodone base content, 2.0 h
# [22] = oral, 5 mg/kg hydrocodone base content, 4.0 h
# [23] = oral, 25 mg/kg hydrocodone base content
# [24] = oral, 25 mg/kg hydrocodone base content, 0 h
# [25] = oral, 25 mg/kg hydrocodone base content, 0.1 h
# [26] = oral, 25 mg/kg hydrocodone base content, 0.5 h
# [27] = oral, 25 mg/kg hydrocodone base content, 1.0 h
# [28] = oral, 25 mg/kg hydrocodone base content, 2.0 h
# [29] = oral, 25 mg/kg hydrocodone base content, 4.0 h
structure (smiles),measurement,setting,value
"CC(Cc1ccccc1)NC(=O)C(N)CCCCN [L-lysine-d-amphetamine, 2,6-diaminohexanoic acid-(1-methyl-2-phenylethyl)-amide]",Percent d-amphetamine,Male Sprague-Dawley rats; activity above baseline relative to d-amphetamine,35%
same,Increase in activity over baseline compared to d-amphetamine dosed animals,"Male Sprague-Dawley rats; rat, with CMC",9%
same,Specific binding,[1],did not bind
"CC[C@H](C)[C@H](NC(=O)[C@H](Cc1ccccc1)NC(=O)[C@H](Cc1ccccc1)NC(=O)[C@H](Cc1ccc(O)cc1)NC(=O)[C@@H](N)Cc1ccc(O)cc1)C(=O)OC1=CC[C@H]2[C@H]3Cc4ccc(OC)c5c4[C@@]2(CCN3C)[C@H]1O5 [YYFFI[SEQ ID NO: 8]-HC, Tyr-Tyr-Phe-Phe-Ile[SEQ ID NO: 8]-(6-O)-Hydrocodone] (H-YYFFI-X1)",Percent Decrease 1 mg/kg vs. 5 mg/kg AUC,[2]; oral bioavailability,15%
same,Percent Decrease 1 mg/kg vs. 5 mg/kg Cmax,[2]; oral bioavailability,23%
same,hydrocodone plus hydromorphone concentration,"[2]; oral, 1 mg/kg dose, 0.5 Hours",7 ng/mL
same,hydrocodone plus hydromorphone concentration,"[2]; oral, 1 mg/kg dose, 1.0 Hours",3.7 ng/mL
same,hydrocodone plus hydromorphone concentration,"[2]; oral, 1 mg/kg dose, 1.5 Hours",4.3 ng/mL
same,hydrocodone plus hydromorphone concentration,"[2]; oral, 1 mg/kg dose, 3 Hours",1.4 ng/mL
same,hydrocodone plus hydromorphone concentration,"[2]; oral, 1 mg/kg dose, 5 Hours",1.1 ng/mL
same,hydrocodone plus hydromorphone concentration,"[2]; oral, 1 mg/kg dose, 8 Hours",0 ng/mL
same,AUC (ng/ml h) 0-8 h,"[2]; oral, 1 mg/kg dose",14.9 ng·h/mL
same,Cmax,"[2]; oral, 1 mg/kg dose",7 ng/mL
same,Percent HC (AUC),"[2]; oral, 1 mg/kg dose",110%
same,Percent HC (Cmax),"[2]; oral, 1 mg/kg dose",81%
same,Hydrocodone AUC,[2]; [3],26.3
same,Hydrocodone Cmax,[2]; [3],20.3 ng/mL
same,"Hydrocodone plus hydromorphone AUC, Percent HC relative to hydrocodone bitartrate",[2]; [3],64%
same,Hydrocodone plus hydromorphone Cmax,[2]; [3],20.8 ng/mL
same,"Hydrocodone plus hydromorphone Cmax, Percent HC relative to hydrocodone bitartrate",[2]; [3],18%
same,"Hydromorphone AUC, Percent HM relative to hydrocodone bitartrate",[2]; [3],97%
same,Hydromorphone Cmax,[2]; [3],2.9 ng/mL
same,"Hydromorphone Cmax, Percent HM relative to hydrocodone bitartrate",[2]; [3],89%
same,Mean hydrocodone plus hydromorphone concentration,[2]; [4],0 ng/mL
same,Mean hydromorphone concentration,[2]; [4],0 ng/mL
same,Mean hydrocodone concentration,"[2]; oral, 1 mg/kg hydrocodone base content, 0 Hours",0 ng/mL
same,Mean hydrocodone concentration,"[2]; oral, 1 mg/kg hydrocodone base content, 0.1 Hours",20.3 ng/mL
same,Mean hydrocodone concentration,"[2]; oral, 1 mg/kg hydrocodone base content, 0.5 Hours",17.9 ng/mL
same,Mean hydrocodone concentration,"[2]; oral, 1 mg/kg hydrocodone base content, 1.0 Hours",10.4 ng/mL
same,Mean hydrocodone concentration,"[2]; oral, 1 mg/kg hydrocodone base content, 2.0 Hours",2.8 ng/mL
same,Mean hydrocodone concentration,"[2]; oral, 1 mg/kg hydrocodone base content, 4.0 Hours",1.2 ng/mL
same,Mean hydrocodone plus hydromorphone concentration,[2]; [5],20.6 ng/mL
same,Mean hydromorphone concentration,[2]; [5],0.27 ng/mL
same,Mean hydromorphone concentration,"[2]; oral, 1 mg/kg hydrocodone base content, 0.5 h",2.87 ng/mL
same,Mean hydrocodone plus hydromorphone concentration,[2]; [6],12.8 ng/mL
same,Mean hydromorphone concentration,[2]; [6],2.39 ng/mL
same,Mean hydrocodone plus hydromorphone concentration,[2]; [7],5.0 ng/mL
same,Mean hydromorphone concentration,[2]; [7],2.24 ng/mL
same,Mean hydrocodone plus hydromorphone concentration,[2]; [8],2.2 ng/mL
same,Mean hydromorphone concentration,[2]; [8],1.02 ng/mL
same,Percent HC + HM (AUC),"[2]; oral, 1 mg/kg",58%
same,Percent HC + HM (Cmax),"[2]; oral, 1 mg/kg",18%
same,Hydrocodone AUC,[2]; [9],48
same,Hydrocodone Cmax,[2]; [9],35.2 ng/mL
same,"Hydrocodone plus hydromorphone AUC, Percent HC relative to hydrocodone bitartrate",[2]; [9],103%
same,Hydrocodone plus hydromorphone Cmax,[2]; [9],36.3 ng/mL
same,"Hydrocodone plus hydromorphone Cmax, Percent HC relative to hydrocodone bitartrate",[2]; [9],53%
same,"Hydromorphone AUC, Percent HM relative to hydrocodone bitartrate",[2]; [9],61%
same,Hydromorphone Cmax,[2]; [9],8.7 ng/mL
same,"Hydromorphone Cmax, Percent HM relative to hydrocodone bitartrate",[2]; [9],48%
same,Mean hydrocodone plus hydromorphone concentration,[2]; [10],0 ng/mL
same,Mean hydromorphone concentration,[2]; [10],0 ng/mL
same,Mean hydrocodone concentration,"[2]; oral, 2 mg/kg hydrocodone base content, 0 Hours",0 ng/mL
same,Mean hydrocodone concentration,"[2]; oral, 2 mg/kg hydrocodone base content, 0.1 Hours",35.2 ng/mL
same,Mean hydrocodone concentration,"[2]; oral, 2 mg/kg hydrocodone base content, 0.5 Hours",23 ng/mL
same,Mean hydrocodone concentration,"[2]; oral, 2 mg/kg hydrocodone base content, 1.0 Hours",14.4 ng/mL
same,Mean hydrocodone concentration,"[2]; oral, 2 mg/kg hydrocodone base content, 2.0 Hours",9.8 ng/mL
same,Mean hydrocodone concentration,"[2]; oral, 2 mg/kg hydrocodone base content, 4.0 Hours",3.3 ng/mL
same,Mean hydrocodone plus hydromorphone concentration,[2]; [11],36.3 ng/mL
same,Mean hydromorphone concentration,[2]; [11],1.13 ng/mL
same,Mean hydrocodone plus hydromorphone concentration,[2]; [12],31.7 ng/mL
same,Mean hydromorphone concentration,[2]; [12],8.74 ng/mL
same,Mean hydrocodone plus hydromorphone concentration,[2]; [13],18.0 ng/mL
same,Mean hydromorphone concentration,[2]; [13],3.63 ng/mL
same,Mean hydrocodone plus hydromorphone concentration,[2]; [14],13.2 ng/mL
same,Mean hydromorphone concentration,[2]; [14],3.41 ng/mL
same,Mean hydrocodone plus hydromorphone concentration,[2]; [15],4.2 ng/mL
same,Mean hydromorphone concentration,[2]; [15],0.88 ng/mL
same,Percent HC + HM (AUC),"[2]; oral, 2 mg/kg",126%
same,Percent HC + HM (Cmax),"[2]; oral, 2 mg/kg",58%
same,hydrocodone plus hydromorphone concentration,"[2]; oral, 5 mg/kg dose, 0.5 Hours",46 ng/mL
same,hydrocodone plus hydromorphone concentration,"[2]; oral, 5 mg/kg dose, 1.0 Hours",33 ng/mL
same,hydrocodone plus hydromorphone concentration,"[2]; oral, 5 mg/kg dose, 1.5 Hours",34 ng/mL
same,hydrocodone plus hydromorphone concentration,"[2]; oral, 5 mg/kg dose, 3 Hours",13 ng/mL
same,hydrocodone plus hydromorphone concentration,"[2]; oral, 5 mg/kg dose, 5 Hours",8.3 ng/mL
same,hydrocodone plus hydromorphone concentration,"[2]; oral, 5 mg/kg dose, 8 Hours",4.5 ng/mL
same,AUC (ng/ml h) 0-8 h,"[2]; oral, 5 mg/kg dose",105 ng·h/mL
same,Cmax,"[2]; oral, 5 mg/kg dose",46 ng/mL
same,Percent HC (AUC),"[2]; oral, 5 mg/kg dose",86%
same,Percent HC (Cmax),"[2]; oral, 5 mg/kg dose",63%
same,Hydrocodone AUC,[2]; [16],47
same,Hydrocodone Cmax,[2]; [16],26.6 ng/mL
same,Hydrocodone plus hydromorphone Cmax,[2]; [16],32.9 ng/mL
same,"Hydromorphone AUC, Percent HM relative to hydrocodone bitartrate",[2]; [16],51%
same,Hydromorphone Cmax,[2]; [16],10.4 ng/mL
same,"Hydromorphone Cmax, Percent HM relative to hydrocodone bitartrate",[2]; [16],77%
same,Mean hydrocodone plus hydromorphone concentration,[2]; [17],0 ng/mL
same,Mean hydromorphone concentration,[2]; [17],0 ng/mL
same,Mean hydrocodone concentration,"[2]; oral, 5 mg/kg hydrocodone base content, 0 Hours",0 ng/mL
same,Mean hydrocodone concentration,"[2]; oral, 5 mg/kg hydrocodone base content, 0.1 Hours",26.6 ng/mL
same,Mean hydrocodone concentration,"[2]; oral, 5 mg/kg hydrocodone base content, 0.5 Hours",22.5 ng/mL
same,Mean hydrocodone concentration,"[2]; oral, 5 mg/kg hydrocodone base content, 1.0 Hours",15.1 ng/mL
same,Mean hydrocodone concentration,"[2]; oral, 5 mg/kg hydrocodone base content, 2.0 Hours",10.3 ng/mL
same,Mean hydrocodone concentration,"[2]; oral, 5 mg/kg hydrocodone base content, 4.0 Hours",3.6 ng/mL
same,Mean hydrocodone plus hydromorphone concentration,[2]; [18],27.1 ng/mL
same,Mean hydromorphone concentration,[2]; [18],0.49 ng/mL
same,Mean hydrocodone plus hydromorphone concentration,[2]; [19],32.9 ng/mL
same,Mean hydromorphone concentration,[2]; [19],10.41 ng/mL
same,Mean hydrocodone plus hydromorphone concentration,[2]; [20],19.9 ng/mL
same,Mean hydromorphone concentration,[2]; [20],4.82 ng/mL
same,Mean hydrocodone plus hydromorphone concentration,[2]; [21],13.5 ng/mL
same,Mean hydromorphone concentration,[2]; [21],3.17 ng/mL
same,Mean hydrocodone plus hydromorphone concentration,[2]; [22],4.7 ng/mL
same,Mean hydromorphone concentration,[2]; [22],1.07 ng/mL
same,Percent HC + HM (AUC),"[2]; oral, 5 mg/kg",20%
same,Percent HC + HM (Cmax),"[2]; oral, 5 mg/kg",4%
same,Hydrocodone AUC,[2]; [23],135.0
same,Hydrocodone Cmax,[2]; [23],41.4 ng/mL
same,Hydrocodone plus hydromorphone Cmax,[2]; [23],49.4 ng/mL
same,"Hydromorphone AUC, Percent HM relative to hydrocodone bitartrate",[2]; [23],33%
same,Hydromorphone Cmax,[2]; [23],16.2 ng/mL
same,"Hydromorphone Cmax, Percent HM relative to hydrocodone bitartrate",[2]; [23],37%
same,Mean hydrocodone plus hydromorphone concentration,[2]; [24],0 ng/mL
same,Mean hydromorphone concentration,[2]; [24],0 ng/mL
same,Mean hydrocodone concentration,"[2]; oral, 25 mg/kg hydrocodone base content, 0 Hours",0 ng/mL
same,Mean hydrocodone concentration,"[2]; oral, 25 mg/kg hydrocodone base content, 0.1 Hours",41.4 ng/mL
same,Mean hydrocodone concentration,"[2]; oral, 25 mg/kg hydrocodone base content, 0.5 Hours",23.3 ng/mL
same,Mean hydrocodone concentration,"[2]; oral, 25 mg/kg hydrocodone base content, 1.0 Hours",31.0 ng/mL
same,Mean hydrocodone concentration,"[2]; oral, 25 mg/kg hydrocodone base content, 2.0 Hours",43.9 ng/mL
same,Mean hydrocodone concentration,"[2]; oral, 25 mg/kg hydrocodone base content, 4.0 Hours",25.0 ng/mL
same,Mean hydrocodone plus hydromorphone concentration,[2]; [25],49.4 ng/mL
same,Mean hydromorphone concentration,[2]; [25],8.00 ng/mL
same,Mean hydrocodone plus hydromorphone concentration,[2]; [26],33.7 ng/mL
same,Mean hydromorphone concentration,[2]; [26],10.35 ng/mL
same,Mean hydrocodone plus hydromorphone concentration,[2]; [27],43.7 ng/mL
same,Mean hydromorphone concentration,[2]; [27],12.70 ng/mL
same,Mean hydrocodone plus hydromorphone concentration,[2]; [28],60.1 ng/mL
same,Mean hydromorphone concentration,[2]; [28],16.22 ng/mL
same,Mean hydrocodone plus hydromorphone concentration,[2]; [29],34.0 ng/mL
same,Mean hydromorphone concentration,[2]; [29],8.98 ng/mL
same,Percent HC + HM (AUC),"[2]; oral, 25 mg/kg",32%
same,Percent HC + HM (Cmax),"[2]; oral, 25 mg/kg",10%
same,Peak levels and bioavailability,"[2]; rat, oral, 5 mg/kg",substantially decreased
